How the values were obtained:
[1] = molecular target: Fc gamma receptor CD16a F variant (human) (UniProt P08637); assay: ELISA, plate coated with recombinant huCD16a (F variant), detection with peroxidase anti-human IgG F(ab')2, OD 450 nm - 630 nm
[2] = molecular target: human Dectin-1 isoform A (human) (UniProt Q9BXN2); assay: flow cytometry on HEK-Blue hDectin-1a cells
[3] = molecular target: human Dectin-1 isoform A (human) (UniProt Q9BXN2); assay: flow cytometry on HEK293F hDectin-1a FL cells
[4] = molecular target: cynomolgus monkey Dectin-1 (cynomolgus monkey); assay: flow cytometry on cynomolgus monkey monocytes
[5] = molecular target: human Dectin-1 isoform B (human) (UniProt Q9BXN2); assay: flow cytometry on HEK-Blue hDectin-1b cells
[6] = molecular target: human Dectin-1 (isoform not given) (human) (UniProt Q9BXN2); assay: flow cytometry on human monocytes
[7] = molecular target: cynomolgus monkey Dectin-1 (cynomolgus monkey); assay: flow cytometry, cynomolgus monkey monocytes

human Dectin-1 isoform A (human), sequence (Q9BXN2 whole entry, canonical isoform): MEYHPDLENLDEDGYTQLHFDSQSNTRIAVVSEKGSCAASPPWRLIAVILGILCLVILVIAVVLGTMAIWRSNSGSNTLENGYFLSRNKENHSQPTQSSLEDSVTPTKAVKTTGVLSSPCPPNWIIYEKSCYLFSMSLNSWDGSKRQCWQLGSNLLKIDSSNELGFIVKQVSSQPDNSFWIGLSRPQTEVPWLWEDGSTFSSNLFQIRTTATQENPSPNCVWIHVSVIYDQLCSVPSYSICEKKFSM
cynomolgus monkey Dectin-1 (cynomolgus monkey), sequence (chain, as listed by the source): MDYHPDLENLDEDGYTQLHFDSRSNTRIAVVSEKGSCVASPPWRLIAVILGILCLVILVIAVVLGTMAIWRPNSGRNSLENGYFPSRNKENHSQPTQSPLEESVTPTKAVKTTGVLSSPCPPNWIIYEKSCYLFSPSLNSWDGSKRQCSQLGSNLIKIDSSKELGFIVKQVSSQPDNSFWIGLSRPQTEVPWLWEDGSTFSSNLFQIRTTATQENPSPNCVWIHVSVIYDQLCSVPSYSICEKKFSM
human Dectin-1 isoform B (human), sequence (Q9BXN2 other isoform, or with tags, fused parts or gaps): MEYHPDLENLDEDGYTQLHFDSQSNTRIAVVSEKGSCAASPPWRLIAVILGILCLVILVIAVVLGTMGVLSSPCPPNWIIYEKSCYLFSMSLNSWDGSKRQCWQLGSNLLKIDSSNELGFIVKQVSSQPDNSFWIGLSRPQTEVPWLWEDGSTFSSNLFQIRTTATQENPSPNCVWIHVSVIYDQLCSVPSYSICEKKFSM
human Dectin-1 (isoform not given) (human), sequence (Q9BXN2 whole entry, canonical isoform): as the sequence (Q9BXN2 whole entry, canonical isoform) above
Fc gamma receptor CD16a F variant (human), sequence (P08637 17-208 limits assumed, change not shown): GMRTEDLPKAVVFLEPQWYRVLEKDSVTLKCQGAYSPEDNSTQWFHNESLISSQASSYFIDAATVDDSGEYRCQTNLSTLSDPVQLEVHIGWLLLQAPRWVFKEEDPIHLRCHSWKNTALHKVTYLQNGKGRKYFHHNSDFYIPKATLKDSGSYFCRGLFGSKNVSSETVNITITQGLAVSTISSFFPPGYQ

| Substance | EC50 (read off the curve) [1] | EC50 [2] | EC50 [3] | EC50 [4] | EC50 [5] | EC50 [6] | EC50 [7] |
| --- | --- | --- | --- | --- | --- | --- | --- |
| Control (antibody) | 0.07 µg/mL | – | – | – | – | – | – |
| commercial anti-Dectin-1 antibody 259931 | – | 0.8 nM | 1.2 nM | 16.5 nM | 0.9 nM | 0.3 nM | 16 nM |
| commercial anti-Dectin-1 antibody GE2 | – | 1.9 nM | 2.4 nM | – | 12 nM | 1.4 nM | – |

Reference: patent publication US20250129168A1
